Literature values, collected in PMC10653114.

Tests used:
Lys72 = Lys72 (UniProt position 76, QVLVKKISQ--); conditions: 300 K; Conc. 0.00 (unit not given; Na+/Cl–); apo (Ca2+-free), inferred from the apo structure 1CLB used
Lys55 = Lys55 (UniProt position 59, FEELDKNGDGE); conditions: 300 K; Conc. 0.00 (unit not given; Na+/Cl–); apo (Ca2+-free), inferred from the apo structure 1CLB used
Lys25 = Lys25 (UniProt position 29, PNQLSKEELKL); conditions: 300 K; Conc. 0.00 (unit not given; Na+/Cl–); apo (Ca2+-free), inferred from the apo structure 1CLB used
Lys29 = Lys29 (UniProt position 33, SKEELKLLLQT); conditions: 300 K; Conc. 0.00 (unit not given; Na+/Cl–); apo (Ca2+-free), inferred from the apo structure 1CLB used
Lys12 = Lys12 (UniProt position 16, KGIFEKYAAKE); conditions: 300 K; Conc. 0.00 (unit not given; Na+/Cl–); apo (Ca2+-free), inferred from the apo structure 1CLB used
Lys41 [1] = target: Lys41 (UniProt position 45, FPSLLKGPSTL); conditions: 300 K; Conc. 0.00 (unit not given; Na+/Cl–); apo (Ca2+-free), inferred from the apo structure 1CLB used
Lys7 = Lys7 (UniProt position 11, SPEELKGIFEK); conditions: 300 K; Conc. 0.00 (unit not given; Na+/Cl–); apo (Ca2+-free), inferred from the apo structure 1CLB used
Lys16 = Lys16 (UniProt position 20, EKYAAKEGDPN); conditions: 300 K; Conc. 0.00 (unit not given; Na+/Cl–); apo (Ca2+-free), inferred from the apo structure 1CLB used
Lys71 = Lys71 (UniProt position 75, FQVLVKKISQ-); conditions: 300 K; Conc. 0.00 (unit not given; Na+/Cl–); apo (Ca2+-free), inferred from the apo structure 1CLB used
Asp39 = Asp39 (UniProt position 413, PVDGWDLTFSF); conditions: 298 K; Conc. 0.10 (unit not given; K+/Cl–)
Lys26 = Lys26 (UniProt position 61, YFYNAKAGLCQ); assay: NMR (only per the titles of cited refs 78 and 79; not given); conditions: 308 K; Conc. 0.0 (unit not given; Na+/Cl– counter-ions in the simulation)
Asp50 = Asp50 (UniProt position 85, FKSAEDCMRTC); assay: as above; conditions: 308 K; Conc. 0.0 (unit not given; Na+/Cl– counter-ions in the simulation)
Glu49 = Glu49 (UniProt position 84, NFKSAEDCMRT); assay: as above; conditions: 308 K; Conc. 0.0 (unit not given; Na+/Cl– counter-ions in the simulation)
Lys46 = Lys46 (UniProt position 81, KRNNFKSAEDC); assay: as above; conditions: 308 K; Conc. 0.0 (unit not given; Na+/Cl– counter-ions in the simulation)
Lys15 = Lys15 (UniProt position 50, YTGPCKARIIR); assay: as above; conditions: 308 K; Conc. 0.0 (unit not given; Na+/Cl– counter-ions in the simulation)
Glu7 = Glu7 (UniProt position 42, PDFCLEPPYTG); assay: as above; conditions: 308 K; Conc. 0.0 (unit not given; Na+/Cl– counter-ions in the simulation)
Lys41 [2] = target: Lys41 (UniProt position 76, GGCRAKRNNFK); assay: as above; conditions: 308 K; Conc. 0.0 (unit not given; Na+/Cl– counter-ions in the simulation)
Asp3 = Asp3 (UniProt position 38, KAQRPDFCLEP); assay: as above; conditions: 308 K; Conc. 0.0 (unit not given; Na+/Cl– counter-ions in the simulation)
Asp43 = Asp43 (UniProt position 417, WTLTFDFPSGQ); conditions: 298 K; Conc. 0.10 (unit not given; K+/Cl–)
Asp44 = Asp44 (UniProt position 91, KGNLADVAPGK); conditions: 298 K; Conc. 0.0 (unit not given; Na+/Cl–)
Asp86 = Asp86 (UniProt position 133, GFRNSDRILYS); conditions: 298 K; Conc. 0.0 (unit not given; Na+/Cl–)
Asp93 = Asp93 (UniProt position 140, ILYSSDWLIYK); conditions: 298 K; Conc. 0.0 (unit not given; Na+/Cl–)
Glu29 = Glu29 (UniProt position 76, YITKSEAQALG); conditions: 298 K; Conc. 0.0 (unit not given; Na+/Cl–)
Asp8 = Asp8 (UniProt position 55, VINTFDGVADY); conditions: 298 K; Conc. 0.0 (unit not given; Na+/Cl–)
Asp12 = Asp12 (UniProt position 59, FDGVADYLQTY); conditions: 298 K; Conc. 0.0 (unit not given; Na+/Cl–)
Asp101 = Asp101 (UniProt position 148, IYKTTDHYQTF); conditions: 298 K; Conc. 0.0 (unit not given; Na+/Cl–)
Asp54 = Asp54 (UniProt position 101, KSIGGDIFSNR); conditions: 298 K; Conc. 0.0 (unit not given; Na+/Cl–)
Asp22 = Asp22 (UniProt position 69, YHKLPDNYITK); conditions: 298 K; Conc. 0.0 (unit not given; Na+/Cl–)
Asp75 = Asp75 (UniProt position 122, TWREADINYTS); conditions: 298 K; Conc. 0.0 (unit not given; Na+/Cl–)
Glu60 = Glu60 (UniProt position 107, IFSNREGKLPG); conditions: 298 K; Conc. 0.0 (unit not given; Na+/Cl–)
Glu73 = Glu73 (UniProt position 120, GRTWREADINY); conditions: 298 K; Conc. 0.0 (unit not given; Na+/Cl–)

For Calbindin D9k (apo) (Bos taurus), the pKa (Lys72) is given as 11.95, the pKa (Lys55) is given as 12.95 and the pKa (Lys25) is given as 13.21. For the same substance, the pKa (Lys29) was 11.81, the pKa (Lys12) was 12.02 and the pKa (Lys41 [1]) was 11.02. For the same substance, the pKa (Lys7) was 12.53, the pKa (Lys16) was 11.90 and the pKa (Lys71) was 11.22.

In the case of “Highly charge-depleted protein (PDB 6QFS), T39D/T66H variant (Cellulomonas fimi (parent domain; not stated in the article); T39D;T66H (on the 6QFS charge-depleted background; background substitutions not stated))”, the pKa (Asp39) is given as 4.07 ± 0.02.

In the case of “Bovine pancreatic trypsin inhibitor (BPTI) (Bos taurus)”, the pKa (Lys26) is given as 10.60, the pKa (Asp50) is given as 3.20 ± 0.20 and the pKa (Glu49) is given as 3.75 ± 0.05. The pKa (Lys46) was 10.30, the pKa (Lys15) was 10.60 and the pKa (Glu7) was 3.65 ± 0.05. For the same substance, the pKa (Lys41 [2]) was 11.20 and the pKa (Asp3) was 3.25 ± 0.15.

For “Highly charge-depleted protein (PDB 6QFS), S43D variant (Cellulomonas fimi (parent domain; not stated in the article); S43D (on the 6QFS charge-depleted background; background substitutions not stated))”, the pKa (Asp43) is listed as 4.37 ± 0.01.

In the case of Barnase (Bacillus amyloliquefaciens), the pKa (Asp44) is given as 3.6 ± 0.1, the pKa (Asp86) is given as 4.2 ± 0.1 and the pKa (Asp93) is given as under 2.0. The pKa (Glu29) was 3.75 ± 0.05, the pKa (Asp8) was 3.1 ± 0.2 and the pKa (Asp12) was 3.6 ± 0.2. The pKa (Asp101) was 2.0 ± 0.2, the pKa (Asp54) was 2.2 ± 0.3 and the pKa (Asp22) was 3.3 ± 0.1. The pKa (Asp75) was 3.1 ± 0.2, the pKa (Glu60) was 3.4 ± 0.1 and the pKa (Glu73) was 2.1 ± 0.1.
